Patent US6828116

Test system: T1, Cy5-Ala-Ala-Phe-Phe-Ala-Ala-Lys-Compound III
T1 sequence: AAFFAAK

## pepsin
  Cy5 fluorescence intensity over time (FRET quench release on cleavage), with and without pepsin: Protease-catalysed hydrolysis of the substrate removes this quenching, restoring the Cy5 fluorescence.
